From article PMC10319324, “Ηigh-resolution structure of mammalian PI31–20S proteasome complex reveals mechanism of proteasome inhibition” (The Journal of Biological Chemistry, 2023)

T1: recombinant wildtype human PI31 (Proteasome Inhibitor of 31,000 Da) (human, UniProt Q92530 1-271)
T1 construct: PI31, product of the PSMF1 gene, human; The methods name a pET28a(+) vector with N-terminally tagged wildtype hPI31 and 'His-PI31 (wildtype)' for mass photometry; Exists in a monomer-dimer equilibrium; also called hPI31; hPI31^WT; source: E. coli, purified; not shown: His tag, N-terminal, kept
T1 sequence (looked up): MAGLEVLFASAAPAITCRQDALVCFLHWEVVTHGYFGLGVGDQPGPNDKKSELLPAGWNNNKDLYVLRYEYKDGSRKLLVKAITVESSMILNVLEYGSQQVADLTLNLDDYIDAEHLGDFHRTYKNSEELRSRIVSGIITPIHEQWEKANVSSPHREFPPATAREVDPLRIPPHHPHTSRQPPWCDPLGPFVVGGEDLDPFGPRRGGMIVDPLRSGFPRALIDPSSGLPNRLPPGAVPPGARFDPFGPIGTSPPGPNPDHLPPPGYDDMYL


Columns and labels:
[1] = biological target: T1, recombinant wildtype human PI31 …; test: cryo-EM structure; purified hPI31 and bovine 20S mixed at a molar ratio of 5:1, 37 °C for 1 h in 20 mM Tris, pH 7.5, 5 mM MgCl2, 100 mM KCl, 1 mM DTT; latent closed-gate 20S; C1 map at 2.54 Å; settings: both partners purified
[2] = biological target: the molecule itself; test: mass photometry; monomer to dimer; His-PI31 diluted to 40 nM total monomer in PBS, recorded immediately after mixing (TwoMP, Refeyn); peaks at 36 to 37 and 56 to 59 kDa
bovine 20S proteasome = bovine 20S proteasome (bovine, UniProt Q2YDE4 1-246; Q3T0Y5 1-234; Q3ZCK9 1-261; Q3ZBG0 1-248; Q5E987 1-241; Q3T0X5 …); test: cell-based or functional assay

Row | Binder | binding result [1] | [monomer]/[M]T ratio [2] | [monomer] at 50% inhibitory activity against SDS-activated 20S (50 nM), PI31 up to 10-fold molar excess (bovine 20S proteasome) | inhibition of the catalytic activity of each subunit type (β1, β2, β5 peptide substrates), PI31 at 10- to 20-fold molar excess (bovine 20S proteasome)
1 | β2 subunit of the bovine 20S proteasome (natural protein, UniProt Q2TBP0 44-277, looked up, Stood in the assay as a subunit of the assembled 20S proteasome; also called β2 active site; β2 catalytic site; source: purified from bovine red blood cells, as part of the 20S proteasome) TTIAGVVYKDGIVLGADTRATEGMVVADKNCSKIHFISPNIYCCGAGTAADTDMTTQLISSNLELHSLSTGRLPRVVTANRMLKQMLFRYQGYIGAALVLGGVDVTGPHLYSIYPHGSTDKLPYVTMGSGSLAAMAVFEDKFRPDMEEEEAKKLVSEAIAAGIFNDLGSGSNIDLCVISKSKLDFLRPYSVPNKKGTRFGRYRCEKGTNAVLTEKVTTLEIEVLEETVQTMDTS | binds |  |  | 
2 | human PI31 V6R dimerization mutant (natural protein, UniProt Q92530 1-271, looked up, PI31, product of the PSMF1 gene, human; point mutation V6R in the FP domain, made on the pET28a(+)-HisPI31^wt template; also called hPI31^V6R; source: E. coli BL21 Star (DE3), purified (Ni-NTA); not shown: His tag, N-terminal, kept) MAGLERLFASAAPAITCRQDALVCFLHWEVVTHGYFGLGVGDQPGPNDKKSELLPAGWNNNKDLYVLRYEYKDGSRKLLVKAITVESSMILNVLEYGSQQVADLTLNLDDYIDAEHLGDFHRTYKNSEELRSRIVSGIITPIHEQWEKANVSSPHREFPPATAREVDPLRIPPHHPHTSRQPPWCDPLGPFVVGGEDLDPFGPRRGGMIVDPLRSGFPRALIDPSSGLPNRLPPGAVPPGARFDPFGPIGTSPPGPNPDHLPPPGYDDMYL |  | 0.54 | 108 nM | 
3 | human PI31 C-terminal domain, residues 152-271 (domain or fragment, UniProt Q92530 152-271, looked up) SSPHREFPPATAREVDPLRIPPHHPHTSRQPPWCDPLGPFVVGGEDLDPFGPRRGGMIVDPLRSGFPRALIDPSSGLPNRLPPGAVPPGARFDPFGPIGTSPPGPNPDHLPPPGYDDMYL |  |  | 200 nM | > 95%
4 | β5 subunit of the bovine 20S proteasome (natural protein, UniProt Q32KL2 60-263, looked up, Stood in the assay as a subunit of the assembled 20S proteasome; also called β5 active site; β5 catalytic site; source: purified from bovine red blood cells, as part of the 20S proteasome) TTTLAFKFRHGVIVAADSRATAGAYIASQTVKKVIEINPYLLGTMAGGAADCSFWERLLARQCRIYELRNKERISVAAASKLLANMVYQYKGMGLSMGTMICGWDKRGPGLYYVDSEGNRISGATFSVGSGSVYAYGVMDRGYSYDLEVEEAYDLARRAIYQATYRDAYSGGSVSLYHVREDGWIRVSSDNVADLHDKYSGSTH | binds |  |  | 
